Results from publication PMC3873559.
pKd: −log10 of the molar value.

What follows are substances tested against human factor Xa (plasma-derived) (human) (assay: kinetic titration of prothrombinase (thrombin generation read with a chromogenic substrate); apparent KD; limiting fXa (15 pM), fV/fVa species varied (30 pM to 10 nM; 0 to 15 nM by the legend of Fig. 4), PCPS vesicles 20 μM, DAPA 3 μM, prothrombin 1.4 μM, Spectrozyme-TH 0.4 mM; fitted to a one binding site model).
Chain of human factor Xa (plasma-derived) (human) (P00742 whole entry): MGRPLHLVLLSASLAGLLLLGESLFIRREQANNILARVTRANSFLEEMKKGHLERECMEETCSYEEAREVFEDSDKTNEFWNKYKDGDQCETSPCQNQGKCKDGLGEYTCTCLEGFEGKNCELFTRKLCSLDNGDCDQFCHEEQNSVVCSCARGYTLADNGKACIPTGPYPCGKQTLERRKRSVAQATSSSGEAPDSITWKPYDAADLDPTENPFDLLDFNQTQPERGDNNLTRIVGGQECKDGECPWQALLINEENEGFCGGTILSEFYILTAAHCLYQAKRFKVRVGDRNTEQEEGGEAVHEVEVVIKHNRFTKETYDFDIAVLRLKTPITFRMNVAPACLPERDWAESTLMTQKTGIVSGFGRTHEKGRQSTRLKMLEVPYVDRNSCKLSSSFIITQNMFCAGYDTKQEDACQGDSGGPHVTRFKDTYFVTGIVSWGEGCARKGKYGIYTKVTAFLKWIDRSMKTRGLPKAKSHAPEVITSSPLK

| pKd | Substance |
| --- | --- |
| 9.55 | wild type recombinant human fV incubated with thrombin (fVa^WT) (from UniProt P12259 29-737; P12259 1574-2224) (complex) |
| 9.04 | recombinant human fV with Arg1018 and Arg1545 mutated to glutamine following incubation with thrombin (fVa^RQQ) (from UniProt P12259 29-737; P12259 738-2224) (complex) |
| 9.29 | fVa purified from pooled fresh frozen normal plasma (fVa^plasma) (from UniProt P12259 29-737; P12259 1574-2224) (complex) |
| 9.14 | recombinant human fV with region 1000–1008 deleted and the thrombin activation cleavage sites (Arg709/Arg1018/Arg1545) mutated to glutamine (fV^ΔB9/Q3) (from UniProt P12259 29-2224) (natural protein) |
